Changes are numbered by the printed parent chain.
B1: H1L7 (antibody, human IgG1, kappa, V domains shown)
VH: QVQLQESGPGLVKPSETLSLTCTVSGFSLTAYGVNWIRQPPGKGLEWIGMIWDDGSTDYNSALKSRVTISVDTSKNQFSLKLSSVTAADTAVYYCAREGDVAFDYWGQGTLVTVSS
VL: DIQMTQSPSSLSASVGDRVTITCKSSQSLLNPSNQKNYLAWYQQKPGKAPKLLVYFASTRDSGVPSRFSGSGSGTDFTLTISSLQPEDFATYYCLQHFGTPPTFGQGTKLEIKR
notes: Humanised anti-LAG-3 variant, HEK 293 6E expressed
B2: J7L7 (antibody, human IgG1, kappa, V domains shown)
VH: QVQLVQSGAEVKKPGSSVKVSCKASGFSLTAYGVNWVRQAPGQGLEWMGMIWDDGSTDYNSALKSRVTITADKSTSTAYMELSSLRSEDTAVYYCAREGDVAFDYWGQGTLVTVSS
VL: B1 VL
notes: as for B1
B3: H7L7 (antibody, human IgG1, kappa, V domains shown)
VH: B1 VH with F27G, L29I, T30S, N60D
VL: B1 VL
notes: as for B1
B4: H2L7 (antibody, human IgG1, kappa, V domains shown)
VH: B1 VH with V71K, T73N, F78V
VL: B1 VL
notes: as for B1
B5: J0L7 (antibody, human IgG1, kappa, V domains shown)
VH: B2 VH with F27G, S28T, L29F, T30S
VL: B1 VL
notes: as for B1
B6: H0L7 (antibody, human IgG1, kappa, V domains shown)
VH: B1 VH with F27G, L29I, T30S
VL: B1 VL
notes: as for B1
B7: J13L7 (antibody, human IgG1, kappa, V domains shown)
VH: B2 VH with F27G, S28T, L29F, T30S, N60D
VL: B1 VL
notes: as for B1
B8: J11L7 (antibody, human IgG1, kappa, V domains shown)
VH: B2 VH with N60D
VL: B1 VL
notes: as for B1
B9: H4L7 (antibody, human IgG1, kappa, V domains shown)
VH: B1 VH with I48L, V67L, V71K, T73N, F78V
VL: B1 VL
notes: as for B1

Biological target: T1, Fc-tagged recombinant soluble LAG-3 (IMP321) (human, UniProt P18627 23-434)
T1 construct: also called LAG3-Ig molecule IMP321; recombinant sLAG-3; not shown: Fc / Ig part
T1 sequence (looked up): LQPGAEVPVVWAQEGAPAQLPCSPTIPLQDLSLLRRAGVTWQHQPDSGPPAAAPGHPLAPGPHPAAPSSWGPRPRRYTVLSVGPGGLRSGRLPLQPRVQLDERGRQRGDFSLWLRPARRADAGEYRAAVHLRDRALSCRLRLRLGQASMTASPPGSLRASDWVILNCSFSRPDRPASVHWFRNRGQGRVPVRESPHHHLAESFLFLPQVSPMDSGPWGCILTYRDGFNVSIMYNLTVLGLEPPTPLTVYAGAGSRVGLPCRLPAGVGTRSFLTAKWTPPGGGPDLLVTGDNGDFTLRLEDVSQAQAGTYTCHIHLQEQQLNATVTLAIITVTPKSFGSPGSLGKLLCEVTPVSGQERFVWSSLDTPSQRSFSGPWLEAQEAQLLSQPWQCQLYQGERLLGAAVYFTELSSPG
Assay: SPR Biacore 3000, off-rate comparison with IMP731, IMP321 analyte at 64 nM
Protocol: The binding kinetics of the purified antibodies for a sLAG-3 molecule were assessed by SPR using a Biacore™ 3000. A goat anti-human kappa antibody (Southern Biotech, Catalogue No. 2060-01) was immobilised on a CM5 chip by primary amine coupling. Humanised anti-LAG3 antibodies were captured on this surface and the LAG3-Ig molecule IMP321 (Chrystelle Brignone, Caroline Grygar, Manon Marcu, Knut Schakel, Frederic Triebel, The Journal of Immunology, 2007, 179: 4202-4211) used as the analyte at 64 nM with a buffer injection (i.e. 0 nM) used to double reference the binding curves. Regeneration was with 10 mM Glycine, pH1.5. The run was carried out on the Biacore™ 3000, using HBS-EP as running buffer and at 25° C. Sensorgrams were normalised for binding at maximal association and off-rates compared against IMP731 by visual inspection of the sensorgram profiles.

Binder | Rank order of off-rates
B1 | 2
B2 | 3
B3 | 8
B4 | 6
B5 | 9
B6 | 10
B7 | 7
B8 | 5
B9 | 4
